Literature values in article PMC11962798.

Biological target: Spike protein RBD (SARS-CoV-2) (UniProt P0DTC2)

Bamlanivimab
Kd: 1.5 nM
